Test [1] has as its target T1, hEMP2-GFP (Homo sapiens, UniProt P54851).
T1 construct: epithelial membrane protein 2 (EMP2), human, fused to GFP; also called human EMP2-GFP; pCDH-EMP2-GFP; source: HEK293T, transfected, in lysate; A549, transfected, in cells; stably overexpressed (lentivirus) in A549, NCI-H520 and LLC cells

Test [2] addresses T2, Peptide 4. KFYPVTREGS (129-138aa) (Homo sapiens).
T2 construct: human EMP2 residues 129-138; source: synthetic peptide (GenScript)
T2 chain: KFYPVTREGS
The test is described as follows: far-Western, overlay or dot blot; dot blot: 2.5 µL of each sample spotted on nitrocellulose (legend: 1 μg/spot), probed with FK002 antibody and HRP-conjugated mouse secondary antibody. The settings on record: both partners purified.

Test [3] addresses T3, Purified EMP2 protein (human, UniProt P54851 1-167).
T3 chain: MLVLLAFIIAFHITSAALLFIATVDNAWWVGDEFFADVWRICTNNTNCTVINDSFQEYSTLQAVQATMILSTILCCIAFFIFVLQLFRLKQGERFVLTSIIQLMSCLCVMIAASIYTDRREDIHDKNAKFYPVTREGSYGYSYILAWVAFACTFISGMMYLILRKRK
Nature of the test: SPR; Biacore 8K; EMP2 protein (approximately 12,000 RU) amine coupled; FK002Ab injected at 8 concentrations (0.02-1 μM), 20 μL/min, 100 s association, 180 s dissociation; PBS pH 7.2-7.4 with 1% dimethyl sulfoxide. Background: Surface plasmon resonance follows binding to a sensor surface in real time, without labels.

Test [4] concerns the target T4, epithelial membrane protein 2 (EMP2), endogenous in NCI-H226 cells (Homo sapiens, UniProt P54851).
T4 construct: epithelial membrane protein 2 (EMP2), human, endogenous in NCI-H226 lung squamous carcinoma cells; On live cells in the flow cytometry; in whole-cell lysate in the immunoprecipitation; also called human EMP2; source: endogenous, NCI-H226 whole-cell lysate; endogenous, on NCI-H226 cells
The test is described as follows: affinity purification with mass spectrometry; FK002 antibody incubated with NCI-H226 whole-cell lysate; immunoprecipitate silver stained, qualitative mass spectrometry. The settings on record: one partner purified.

The target in test [5] is T1, hEMP2-GFP. The test is described as follows: immunostaining of cells or tissue; immunofluorescence of A549 cells transfected with hEMP2-GFP, stained with FK002; colocalization quantified. The conditions noted are these: one partner purified.
Test [6] deals with T3, Purified EMP2 protein. Nature of the test: SPR.

B1: FK002-exatecan (antibody, V domains shown)
VH: DVQLQESGPGLVKPSQSLSLTCSVTGYSITSGYYWNWIRQFPGNKLEWMGYIRYDGRNNYNPSLKNRISITRDTSKNQFFLKLNSVTTEDTATYYCARDFDYWGQGTTLTVSS
VL: DIVLTQSPASLAVSLGQRATISCRASESVDTYGNSFMHWYQQKPGQPPKLLIYRASNLESGIPARFSGSGSRTDFTLTINPVEADDVATYYCHQSNEDPDTFGGGTKLEIKR
modifications: exatecan conjugated by the T1000 (Mc-VA-PABC(PSAR1o)) linker to the fully reduced antibody; DAR approximately 8 per antibody; residues not stated | exatecan conjugated by the T1000 (Mc-VA-PABC(PSAR1o)) linker to the fully reduced antibody; DAR approximately 8 per antibody; residues not stated
B1: the EMP2 left on the cell surface, flow cytometry of EMP2-overexpressing NCI-H520 and NCI-A549 cells with or without FK002-exatecan (100 nM) for 48 h with hEMP2-GFP [1] is less than 35%.

B2: FK002 antibody (mouse mAb) (antibody, V domains shown)
VH: DVQLQESGPGLVKPSQSLSLTCSVTGYSITSGYYWNWIRQFPGNKLEWMGYIRYDGRNNYNPSLKNRISITRDTSKNQFFLKLNSVTTEDTATYYCARDFDYWGQGTTLTVSS
VL: DIVLTQSPASLAVSLGQRATISCRASESVDTYGNSFMHWYQQKPGQPPKLLIYRASNLESGIPARFSGSGSRTDFTLTINPVEADDVATYYCHQSNEDPDTFGGGTKLEIK
notes: V region of the printed chimeric heavy chain; mouse IgG heavy constant region; V region of the printed chimeric light chain; mouse light constant region; Flow cytometry, immunofluorescence, immunoblot and dot blot used the mouse mAb (anti-mouse secondary antibodies); also called FK002Ab; FK002 mAb; source: hybridoma, mouse ascites (from Abmart)
As for B2, the binding result (in test [2]; in test [4]; with hEMP2-GFP [5]) was “binds” in each case. In the test with Purified EMP2 protein [3], this molecule showed a dissociation constant Kd of 40.3 nM. For the same molecule, the koff in the test with Purified EMP2 protein [6] stood at 0.00328 s⁻¹.

The Kd is a measure of binding affinity in units of concentration. For orientation: koff means the first-order rate constant of dissociation. Higher therefore signals fast dissociation.

(Values after article PMC12579237, “Development of antibody drug conjugates targeting epithelial membrane protein 2-highly expressed lung cancer” (Cell Death & Disease, 2025).)
